The labels stand for the following.
B1: SH2 domain-containing protein 1A (Homo sapiens), O60880-1 (parent)
chain: MDAVAVYHGKISRETGEKLLLATGLDGSYLLRDSESVPGVYCLCVLYHGYIYTYRVSQTETGSWSAETAPGVHKRYFRKIKNLISAFQKPDQGIVIPLQYPVEKKSSARSTQGTTGIREDPDVCLKAP
partner: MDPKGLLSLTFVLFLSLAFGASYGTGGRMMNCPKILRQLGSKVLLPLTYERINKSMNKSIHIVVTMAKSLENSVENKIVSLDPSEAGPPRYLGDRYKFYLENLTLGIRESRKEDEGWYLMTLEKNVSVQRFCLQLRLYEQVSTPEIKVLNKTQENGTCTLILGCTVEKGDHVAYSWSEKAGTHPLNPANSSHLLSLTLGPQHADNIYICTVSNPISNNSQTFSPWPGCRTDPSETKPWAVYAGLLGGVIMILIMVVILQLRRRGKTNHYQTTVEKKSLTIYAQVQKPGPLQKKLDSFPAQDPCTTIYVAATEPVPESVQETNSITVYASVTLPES

This assay covers variants of B1. To be noted: with slaf1_human SLAMF1, Q13291.
Regarding MDAVAVYHGKISRETDEKLLLATGLDGSYLLRDSESVPGVYCLCVLYHGYIYTYRVSQTETGSWSAETAPGVHKRYFRKIKNLISAFQKPDQGIVIPLQYPVEKKSSARSTQGTTGIREDPDVCLKAP [G16D], the “effect of a mutation on the interaction” value is given as “disrupting interaction strength”.

The record behind these values is IntAct's records for PubMed 15841490.
